In patent US20140234868A1, “USE FOR GLYCOLIPOPROTEIN GINTONIN, ISOLATED AND IDENTIFIED FROM GINSENG, AS A NATURAL MEDICAL-PLANT DERIVED LIGAND” (KONKUK UNIVERSITY INDUSTRIAL COOPERATION CORP., priority 2011, published 2014):

Experiments:
[1] = biological target: T1, mutant W4.64A LPA3 receptor (Homo sapiens, UniProt Q9UBY5, W167A); assay: Intracellular Ca2+ in B103 cells with mutant W4.64A LPA3 receptor; type: cell-based; conditions: W4.64A LPA3 receptor-transfected B103 cells
T1 construct: expressed in transfected cells; host or cells: B103 rat neuroblastoma cells
T1 sequence (Q9UBY5 1-353 W167A): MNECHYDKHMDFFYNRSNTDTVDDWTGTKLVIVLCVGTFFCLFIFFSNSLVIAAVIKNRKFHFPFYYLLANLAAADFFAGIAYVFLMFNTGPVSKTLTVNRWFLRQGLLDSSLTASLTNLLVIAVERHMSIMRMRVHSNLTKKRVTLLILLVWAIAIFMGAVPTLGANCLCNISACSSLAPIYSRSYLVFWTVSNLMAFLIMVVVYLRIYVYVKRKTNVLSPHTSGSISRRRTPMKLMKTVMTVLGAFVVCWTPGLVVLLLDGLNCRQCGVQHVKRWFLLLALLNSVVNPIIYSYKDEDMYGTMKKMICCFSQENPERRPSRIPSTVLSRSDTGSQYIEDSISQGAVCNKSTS
Text: That is, LPA receptors have specific amino acid residues, known as binding sites, which are responsible for interaction with LPA, and the binding of LPA to the specific amino acids starts to exert the function. This Example was configured to examine a change in the gintonin-induced intracellular calcium increase through LPA receptor activation in LPA3 receptor-expressing cells when specific amino acids of the LPA binding site in LPA receptors were mutated.
To this end, a mutant LPA receptor in which Arg3.28, known as a common LPA binding site of LPA1-LPA3 receptors, was mutated as Arg3.28Ala (that is, Arg is substituted by Ala; R3.28A) or Trp4.64, known as an LPA-binding site of LPA3 receptor was mutated as Trp4.64Ala (that is, Tip is substituted by Ala; W4.64A) (Valentine et al., J. Biol. Chem. 283, 12175-12187, 2008) was transfected to B103 cells which were then tested for the action of gintonin, in comparison with cells transfected with the wild-type. […] From the result, it is henceforth understood that the gintonin-triggered LPA receptor activation is achieved by interaction with the LPA binding sites of LPA receptors and that gintonin occupies the LPA binding sites to activate LPA receptors.

HUVECs = assay: HUVEC proliferation, BrDU incorporation ELISA; type: cell-based, human; conditions: gintonin 24 hrs
Experimental: In this Example, gintonin was examined for effect on cell growth. In this regard, HUVECs (human umbilical vein endothelial cells) were cultured with BrDU in the presence of gintonin, and analyzed for relative BrDU content by BrDU assay (Won et al., J Pharmacol Sci 108, 372-379, 2008; Chen et al., Cell Physiol Biochem 22, 307-314, 2008) using a BrDU cell proliferation ELISA kit (Roche, Germany).
Briefly, cells were seeded at a density of 3×10^3 cells/well into 96-well plates one day before treatment with gintonin. After 24 hrs of incubation, the cells were cultured for 6 hrs in a fresh M199 medium supplemented with […]. Again, the medium was changed to a fresh M199 medium supplemented with […], after which the cells were incubated with gintonin for 24 hrs. For an additional 24 hrs, the cells were incubated with a BrDU labeling reagent. After medium was removed, the cells were washed with 10% FBS-supplemented M199, fixed with a fixative, and quantitatively analyzed for relative intracellular BrDU content using an anti-BrDU-peroxidase antibody and a luminometer (Veritas, Turner Biosystems, USA).

B1: gintonin: ginseng-derived glycolipoprotein; structural protein of ginseng major latex-like protein (MLP151) and ribonuclease-like storage proteins; crude gintonin used in tests (protein)
chain 1: MGLTGKLICQTGIKSDGDVFHELFGTRPHHVPNITPANIQGCDLHEGEFGKVGSVVIWNYSIDGNAMIAKEEIVAIDEEDKSVTFKVVEGHLFEEFKSIVFSVHVDTKGEDNLVTWSIDYEKLNESVKDPTSYLDFLLSVTRDIEAHHLPK
chain 2: RSDYPWAMFALRLQWPAGFCEVNNACDTKSLLNTFTIHGLYPYNAKGTPALYCDGTAFDVNSVSDFLAEMHLAWPSHETNTEDIQFWEHEWKKHGRCSEALLKQTDYFRTALAFRKAFDIVGLLNQEGIYPNNDLYRPKMIKEAIKKHLNAVPEIDFTKNENSEYVLTDINVCVNQQATRFVDCPTDDATDDYRLKFVRLPSKMKFADPRTNSII
gintonin-induced intracellular calcium increase vs wild-type [1]: greatly reduced | incorporation of Br-DU into DNA (HUVECs): increase the incorporation of Br-DU into the DNA of HUVECs in a concentration-dependent manner
